The target in the test is CXCR4 (Homo sapiens, UniProt P61073). Put plainly: Chemotaxis assay, effect on SDF1-a (CXCL12) induced migration of CCRF-CEM cells. The format is cell-based. Also on record: a human T-cell ALL line that endogenously expresses CXCR4; endogenous in cells; host or cells: CCRF-CEM (human T-cell ALL line). The note with it: for activity at 1 µM: CCRF-CEM; for Peak Ratio: peak test compound/peak control.

The mark [1] stands for this setting: Table 20, i3 loop, CEM cells, conc 1.0 uM, read-out: AUC (% of vehicle).
Setting [2] is: Table 20, i3 loop, CEM cells, conc 1.0 uM, read-out: Max (% of vehicle).
[3] abbreviates: Table 20, i3 loop, CEM cells, conc 1.0 uM.
Setting [4] is: Table 18, i1 loop, CEM cells, drug conc 1.0 uM.
[5] abbreviates: Table 21, i4 loop, CEM cells, conc 1.0 uM.
[6] abbreviates: Table 18, i1 loop, CEM cells, drug conc 1.0 uM, read-out: AUC (% of).
Where [7] appears, read: Table 18, i1 loop, CEM cells, drug conc 1.0 uM, read-out: Max (% of).
Where [8] appears, read: Table 20, i3 loop, CEM cells, conc 0.01 uM.
The mark [9] stands for this setting: Table 20, i3 loop, CEM cells, conc 0.03 uM.
[10] abbreviates: Table 20, i3 loop, CEM cells, conc 0.1 uM.
Where [11] appears, read: Table 20, i3 loop, CEM cells, conc 0.3 uM.
[12] abbreviates: Table 20, i3 loop, CEM cells, conc 3.0 uM.

Here are results for 16 compounds from US9096646B2, “CXCR4 receptor compounds” (priority 2008, dated 2015).

“And” between values parts separate entries of the source, which are not always exact repeats. Equal entries are not always repeated. Where two headings read alike, the source gives them in different places. Square brackets hold non-standard residues; d marks the D form. Ends that are not written are not given here. Peptide text beside a SMILES is read from it. * marks the point of attachment. ξ: configuration not given here. Biotin = O=C1N[C@H]2[C@H](CS[C@H]2CCCCC(=O)*)N1; ξGly(nC16H33) = CCCCCCCCCCCCCCCCC(N)C(=O)O; Palmitoyl = CCCCCCCCCCCCCCCC(=O)*; Myristoyl = CCCCCCCCCCCCCC(=O)*

Sequence of CXCR4 (P61073 whole entry): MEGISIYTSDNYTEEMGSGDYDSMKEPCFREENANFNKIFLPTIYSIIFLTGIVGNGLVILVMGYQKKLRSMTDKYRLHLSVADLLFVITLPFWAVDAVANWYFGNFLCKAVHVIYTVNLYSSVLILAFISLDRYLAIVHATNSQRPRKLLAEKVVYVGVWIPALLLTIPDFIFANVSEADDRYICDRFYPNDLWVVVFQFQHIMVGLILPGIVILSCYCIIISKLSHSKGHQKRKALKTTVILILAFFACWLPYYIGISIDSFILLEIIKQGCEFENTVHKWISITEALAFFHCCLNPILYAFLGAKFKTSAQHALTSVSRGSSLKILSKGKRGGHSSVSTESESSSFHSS
Excerpt: Chemotaxis assays were utilized to determine the effect of compound on the directed migration of cells in response to chemokine. Cells that express a receptor of interest were placed in the upper chamber of a Transwell chemotaxis plate (Corning) and allowed to migrate through a polycarbonate membrane to a lower chamber containing the appropriate receptor-specific ligand. To test for antagonist or potentiating activity, cells were mixed with the desired concentration of compound prior to addition to the upper chamber. Conversely, agonist activity was determined by adding compound in the bottom chamber only without endogenous chemokine. The effect of compound is quantified by several parameters, including the extent of maximum response, the shift of agonist dose-response curves, and the area under the curve.
To measure the CXCR4-dependent migration of cells, the appropriate concentration of CXCL12 (SDF1a) or test compound was diluted in phenol red-free RMPI-1640/20 mM HEPES/0.5% BSA buffer and placed in the bottom chamber of a transwell apparatus. CCRF-CEM cells, a human T-cell ALL line that endogenously expresses CXCR4, were washed twice in buffer and resuspended at 133,000 cells/ml. A 75 μl sample of this suspension is mixed with the test compound of interest and placed in the upper chamber of a 5-micron transwell apparatus.
To initiate cell migration, the assembled transwell plate was placed in a 37° C., 0.5% CO2 incubator for a specified time interval, typically between 30 and 120 minutes. After incubation, the unit was disassembled and the lower chamber placed at −80° C. overnight to facilitate lysis of cells. To quantify migrated cells, plates were thawed at 37° C. in a humidified chamber, and then a sample volume was removed from each well and mixed with an equal volume of CyQuant (Invitrogen) working solution in opaque plates. The fluorescence intensity of each well represents the DNA content and is directly proportional to cell number. […] The plate background control, which included no cells in the upper chamber, was subtracted from all values.

Turning to `CCCCCCCCCCCCCCCC(=O)N[C@@H](CCCCN)C(=O)N[C@@H](CC(C)C)C(=O)N[C@@H](CO)C(=O)N[C@@H](Cc1cnc[nH]1)C(=O)N[C@@H](CO)C(=O)N[C@@H](CCCCN)C(=O)NCC(=O)N[C@@H](Cc1cnc[nH]1)C(=O)N[C@@H](CCC(N)=O)C(=O)N[C@@H](CCCCN)C(=O)N[C@@H](CCCNC(=N)N)C(=O)N[C@@H](CCCCN)C(=O)N[C@@H](C)C(=O)N[C@@H](CC(C)C)C(N)=O` [Compound 93] (Palmitoyl-KLSHSKGHQKRKAL-NH2), the activity at 1 µM under setting [1] turned out to be 15.9%. In addition, the activity at 1 µM under setting [2] was found to be 54.8%. Under setting [3], the “Peak Test Compound” value was determined as 0.2 nM and the “Peak Ratio” value was 0.2.

Consider “96: CXCR4 i3 loop compound (SHSKGHQKRKALK; also: lipid Pal, place not given here) [Compound 96]”, for which, under setting [3], the “AUC (% of vehicle)” value was 34.22 % of vehicle and the “Max (% of vehicle)” value is given as 63.12 % of vehicle.

For the compound “104: CXCR4 i3 loop compound (IIISKLSHSKGHQKRKALKT) [Compound 104]”, under setting [3], the “AUC (% of vehicle)” value is reported as 36.4 % of vehicle and the “Max (% of vehicle)” value is recorded as 56.39 % of vehicle.

“53 (MGYQKKLRSMTDKYRLHL; not fully specified) [Compound 53]”: under setting [4], the “AUC (% of)” value is 60.98 % of and 91.1 % of; the “Max (% of)” value is 68.45 % of and 89.56 % of.

Turning to “89: CXCR4 i3 loop compound (KLSHSKGHQKRKALKTTVIL) [Compound 89]”, under setting [3], the “AUC (% of vehicle)” value is 37.55 % of vehicle and the “Max (% of vehicle)” value is 59.71 % of vehicle.

As for “115: CXCR4 i4 domain compound (GAKFKTSAQHALTSVSRGSSLK) [Compound 115]”, under setting [5], the “AUC (% of vehicle)” value is given as 77.47 % of Vehicle and the “Max (% of vehicle)” value was 92.11 % of Vehicle.

Take `CCCCCCCCCCCCCCCC(=O)N[C@@H](CCSC)C(=O)NCC(=O)N[C@@H](Cc1ccc(O)cc1)C(=O)N[C@@H](CCC(N)=O)C(=O)N[C@@H](CCCCN)C(=O)N[C@@H](CCCCN)C(=O)N[C@@H](CC(C)C)C(=O)N[C@@H](CCCNC(=N)N)C(=O)N[C@@H](CO)C(=O)N[C@@H](CCSC)C(=O)N[C@H](C(=O)N[C@@H](CC(=O)O)C(=O)N[C@@H](CCCCN)C(=O)N[C@@H](Cc1ccc(O)cc1)C(=O)N[C@@H](CCCNC(=N)N)C(=O)N[C@H](C(N)=O)[C@@H](C)CC)[C@@H](C)O` [Compound 49] (Palmitoyl-MGYQKKLRSMTDKYRI-NH2): the activity at 1 µM by setting is: under setting [6], 50.9%; under setting [7], 62.7%.

For the compound `CCCCCCCCCCCCCCCCC(NC(=O)CCCC[C@@H]1SC[C@@H]2NC(=O)N[C@@H]21)C(=O)N[C@@H](Cc1cnc[nH]1)C(=O)N[C@@H](CO)C(=O)N[C@@H](CCCCN)C(=O)NCC(=O)N[C@@H](Cc1cnc[nH]1)C(=O)N[C@@H](CCC(N)=O)C(=O)N[C@@H](CCCCN)C(=O)N[C@@H](CCCNC(=N)N)C(=O)N[C@@H](CCCCN)C(=O)N[C@@H](C)C(=O)N[C@@H](CC(C)C)C(=O)N[C@@H](CCCCN)C(N)=O` (some centres unmarked) [Compound 87] (Biotin-[ξGly(nC16H33)]HSKGHQKRKALK-NH2), the activity at 1 µM was 52.6% under setting [1] and 76.1% under setting [2]. The “Peak Test Compound” value under setting [3] is recorded as 0.2 nM. Besides, the “Peak Ratio” value under setting [3] amounted to 0.2.

For “114: CXCR4 i4 domain compound (GAKFKTSAQHALTSVSRGSSLKILSK) [Compound 114]”, under setting [5], the “AUC (% of vehicle)” value was 34.22 % of Vehicle and the “Max (% of vehicle)” value is given as 63.12 % of Vehicle.

For “103: CXCR4 i3 loop compound (IIISKLSHSKGHQKRKALKT) [Compound 103]”, under setting [3], the “AUC (% of vehicle)” value is 26.32 % of vehicle and the “Max (% of vehicle)” value was 24.45 % of vehicle.

On to `CCCCCCCCCCCCCCCC(=O)N[C@@H](Cc1cnc[nH]1)C(=O)N[C@@H](CO)C(=O)N[C@@H](CCCCN)C(=O)NCC(=O)N[C@@H](Cc1cnc[nH]1)C(=O)N[C@@H](CCC(N)=O)C(=O)N[C@@H](CCCCN)C(=O)N[C@@H](CCCNC(=N)N)C(=O)N[C@@H](CCCCN)C(=O)N[C@@H](C)C(=O)N[C@@H](CC(C)C)C(=O)N[C@@H](CCCCN)C(=O)N[C@H](C(=O)N[C@H](C(=O)N[C@H](C(N)=O)C(C)C)[C@@H](C)O)[C@@H](C)O` [Compound 99] (Palmitoyl-HSKGHQKRKALKTTV-NH2), for which the activity at 1 µM under setting [1] amounted to 45%. Under setting [2], the activity at 1 µM amounted to 64.5%. Under setting [3], the “Peak Test Compound” value came to 0.2 nM and the “Peak Ratio” value worked out at 0.2.

For the compound “Pal-SKLSHSKGHQKRKALKTTVIL-amide (Palmitoyl-SKLSHSKGHQKRKALKTTVIL-NH2; SMILES CCCCCCCCCCCCCCCC(=O)N[C@@H](CO)C(=O)N[C@@H](CCCCN)C(=O)N[C@@H](CC(C)C)C(=O)N[C@@H](CO)C(=O)N[C@@H](Cc1c[nH]cn1)C(=O)N[C@@H](CO)C(=O)N[C@@H](CCCCN)C(=O)NCC(=O)N[C@@H](Cc1c[nH]cn1)C(=O)N[C@@H](CCC(N)=O)C(=O)N[C@@H](CCCCN)C(=O)N[C@@H](CCCNC(=N)N)C(=O)N[C@@H](CCCCN)C(=O)N[C@@H](C)C(=O)N[C@@H](CC(C)C)C(=O)N[C@@H](CCCCN)C(=O)N[C@H](C(=O)N[C@H](C(=O)N[C@H](C(=O)N[C@H](C(=O)N[C@@H](CC(C)C)C(N)=O)[C@@H](C)CC)C(C)C)[C@@H](C)O)[C@@H](C)O) [Compound 88]”, under “30 nM of compound”, the “positive allosteric modulation of the SDF1-a dependent chemotactic response (RFU)” value is given as “induces a positive SDF1-a mediated chemotactic response”. Moreover, the “AUC (% of vehicle)” value under setting [8] was 172.33 % of vehicle; the “AUC (% of vehicle)” value under setting [9] was 226.59 % of vehicle; the “AUC (% of vehicle)” value under setting [10] is given as 183.19 % of vehicle; the “AUC (% of vehicle)” value under setting [11] was 131.2 % of vehicle; the “AUC (% of vehicle)” value under setting [3] is reported as 143.61 % of vehicle; the “AUC (% of vehicle)” value under setting [12] was 116.49 % of vehicle. Besides, the “Max (% of vehicle)” value runs as follows: under setting [8], 156.08 % of vehicle; under setting [9], 202.16 % of vehicle; under setting [10], 157.79 % of vehicle; under setting [11], 113.68 % of vehicle; under setting [3], 131.59 % of vehicle; under setting [12], 114.49 % of vehicle. Further, the “Peak Test Compound” value under setting [8] came out at 0.03 nM; the “Peak Test Compound” value under setting [9] worked out at 0.03 nM; the “Peak Test Compound” value under setting [10] stood at 0.03 nM; the “Peak Test Compound” value under setting [3] is reported as 0.8 nM; the “Peak Test Compound” value under setting [12] worked out at 0.8 nM.

Consider “108: CXCR4 i4 domain compound (GAKFKTSAQHALTSVSRGSSLKILSKGKRG) [Compound 108]”, for which, under setting [5], the “AUC (% of vehicle)” value is recorded as 89.47 % of Vehicle, the “Max (% of vehicle)” value is listed as 83.94 % of Vehicle and the “Peak Test Comp.” value was 25 nM.

As to `CCCCCCCCCCCCCCCC(=O)N[C@@H](Cc1cnc[nH]1)C(=O)N[C@@H](CO)C(=O)N[C@@H](CCCCN)C(=O)NCC(=O)N[C@@H](Cc1cnc[nH]1)C(=O)N[C@@H](CCC(N)=O)C(=O)N[C@@H](CCCCN)C(=O)N[C@@H](CCCNC(=N)N)C(=O)N[C@@H](CCCCN)C(=O)N[C@@H](C)C(=O)N[C@@H](CC(C)C)C(=O)N[C@@H](CCCCN)C(=O)N[C@H](C(=O)N[C@H](C(=O)N[C@H](C(=O)N[C@H](C(N)=O)[C@@H](C)CC)C(C)C)[C@@H](C)O)[C@@H](C)O` [Compound 100] (Palmitoyl-HSKGHQKRKALKTTVI-NH2), under setting [1], the activity at 1 µM turned out to be 49.3%. Moreover, under setting [2], the activity at 1 µM stood at 49.8%. Further, under setting [3], the “Peak Test Compound” value is recorded as 0.2 nM and the “Peak Ratio” value is reported as 0.04.

With `CCCCCCCCCCCCCCCCC(NC(=O)CCCCCCCCCCCCC)C(=O)N[C@@H](CCSC)C(=O)NCC(=O)N[C@@H](Cc1ccc(O)cc1)C(=O)N[C@@H](CCC(N)=O)C(=O)N[C@@H](CCCCN)C(=O)N[C@@H](CCCCN)C(=O)N[C@@H](CC(C)C)C(=O)N[C@@H](CCCNC(=N)N)C(=O)N[C@@H](CO)C(=O)N[C@@H](CCSC)C(=O)N[C@H](C(=O)N[C@@H](CC(=O)O)C(=O)N[C@@H](CCCCN)C(=O)N[C@@H](Cc1ccc(O)cc1)C(=O)N[C@@H](CCCNC(=N)N)C(=O)N[C@H](C(N)=O)[C@@H](C)CC)[C@@H](C)O` (some centres unmarked) [Compound 48] (Myristoyl-[ξGly(nC16H33)]MGYQKKLRSMTDKYRI-NH2), the activity at 1 µM reads like this: under setting [6], 53%; under setting [7], 53.5%.

For `CCCCCCCCCCCCCCCC(=O)N[C@@H](CC(C)C)C(=O)N[C@@H](CO)C(=O)N[C@@H](Cc1cnc[nH]1)C(=O)N[C@@H](CO)C(=O)N[C@@H](CCCCN)C(=O)NCC(=O)N[C@@H](Cc1cnc[nH]1)C(=O)N[C@@H](CCC(N)=O)C(=O)N[C@@H](CCCCN)C(=O)N[C@@H](CCCNC(=N)N)C(=O)N[C@@H](CCCCN)C(=O)N[C@@H](C)C(=O)N[C@@H](CC(C)C)C(=O)N[C@@H](CCCCN)C(N)=O` [Compound 95] (Palmitoyl-LSHSKGHQKRKALK-NH2), under setting [1], the activity at 1 µM came to 77.5%. Moreover, the activity at 1 µM under setting [2] worked out at 92.1%. Also, under setting [3], the “Peak Test Compound” value is recorded as 1 nM and the “Peak Ratio” value is 1.
